# Assay results from patent US20240024504A1, “SITE-SELECTIVE LYSINE ACETYLATION OF HUMAN IMMUNOGLOBULIN G AND IgG-RELATED PRODUCTS FOR IMMUNOTHERAPY” (The Chinese University of Hong Kong, priority 2022, published 2024).
# How the values were obtained:
# His-tagged human PD-L1 = molecular target: T1, His-tagged human PD-L1 (Homo sapiens, UniProt Q9NZQ7); assay: Pull-down assay of modified atezolizumab on PD-L1 loaded Ni-NTA resins; format: binding; conditions: PD-L1 immobilized on Ni-NTA resins
# T1 construct: purchased GenScript
# Description: (FIG. 16A) A pull-down experiment in vitro. […] (FIG. 16B) FITC labeled PD-L1 was immobilized on Ni-NTA agarose resin through polyhistidine tag.
# Ni-NTA agarose resins were resuspended and 20 μL resins were pipetted into a 1.5 mL tube. After washing with PBS-T buffer (phosphate buffered saline supplemented with 0.1% Tween-20), His-tagged human PD-L1 (200 nM) was immobilized on Ni-NTA resins in 100 μL buffer solution (20 mM imidazole, pH 7.4 PBS-T) at room temperature for 1 h with shaking. The binding solution was removed by centrifugation and the resins were washed three times with pH 7.4 PBS-T buffer. Then Atezo-TAMRA (100 nM) was incubated with the resins in 100 μL buffer solution (20 mM imidazole, pH 7.4 PBS-T) for 1 h with shaking. Next, the resins were washed three times with PBS-T and eluted by boiling the beads for 10 min in 2× sample loading buffer. The samples were analyzed by SDS-PAGE. As a negative control, same amount of polyclonal IgG was incubated with the PD-L1 loaded resins. For confocal microscopy, His-tagged human PD-L1 was firstly labelled by FITC.
# [1] = test system: PD-L1 positive (PC12) cells; assay: Immunofluorescence of modified atezolizumab, confocal microscopy; format: cell-based; conditions: 150 nM, PBS pH 7.4, 37° C., 15 min
# Description: FIG. 5A-5B Acetylation of therapeutic antibody and immunofluorescence. (FIG. 5A) Acetylation reaction monitored by SDS-PAGE and fluorescent scanning. Reaction condition: 4 μM antibodies, 24 μM F1, PBS buffer (pH 7.4), at 37° C. for 1 h. The reactions were quenched with 1% SDS and DBCO-TAMRA was added at room temperature for 1.5 h for SPAAC reaction before SDS-PAGE and in-gel fluorescent imaging. Lane M, molecular weight marker; lane 1, M-trastuzumab; lane 2, M-cetuximab; lane 3, M-daratumumab; […], reduced results of […]. […] Incubation conditions: Cells were incubated with modified antibodies (150 nM) in PBS buffer (pH 7.4) at 37° C. for 15 min before the fixation of cells.
# IgG Fc = assay: Competition between reactive peptide (F1) and non-reactive peptide; format: biochemical, human; conditions: non-reactive peptide added to the reaction of F1 and IgG
# Description: (FIG. 3A) The structures of peptides used in this work. FITC moiety was added at the N-termini of the peptides to MST analysis.
# T1 sequence (Q9NZQ7 19-290): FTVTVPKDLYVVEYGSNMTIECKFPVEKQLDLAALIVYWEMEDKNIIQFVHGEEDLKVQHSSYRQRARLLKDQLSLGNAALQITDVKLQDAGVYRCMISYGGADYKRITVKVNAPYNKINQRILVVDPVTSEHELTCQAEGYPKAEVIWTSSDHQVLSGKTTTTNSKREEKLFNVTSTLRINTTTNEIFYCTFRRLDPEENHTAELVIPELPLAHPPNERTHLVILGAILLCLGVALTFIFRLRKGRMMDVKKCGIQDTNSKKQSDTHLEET
binding to PD-L1 (pull-down) (His-tagged human PD-L1),binding to PD-L1 (pull-down) (His-tagged human PD-L1; listed as acetylated atezolizumab),Compound,binding to cells (immunofluorescence) [1],effect on the acetylation reaction of F1 and IgG (IgG Fc)
reserved the binding ability to PD-L1,could still bind its ligand,M-Atezo: atezolizumab azidoacetylated at Lys248 of the Fc by F1 (DBCO-TAMRA tagged for detection),maintained their binding with PD-L1 positive (PC12) cells,
,,CC(C)C[C@@H]1NC(=O)C(CCC(=O)O)NC(=O)CNC(=O)[C@H](CC(C)C)NC(=O)[C@H](Cc2c[nH]cn2)NC(=O)[C@H](Cc2c[nH]c3ccccc23)NC(=O)[C@H](C)NC(=O)[C@@H](NC(=O)[C@H](CC(=O)O)NC(=O)CCNC(=O)CNC(=S)Nc2ccc(-c3c4ccc(=O)cc-4oc4cc(O)ccc34)c(C(=O)O)c2)CSSC[C@@H](C(=O)N[C@H](C(N)=O)[C@@H](C)O)NC(=O)[C@H](Cc2c[nH]c3ccccc23)NC(=O)[C@H](C(C)C)NC1=O (stereo partly shown) [f-F0],,abolished the acetylation reaction
